Positions of bridges follow the written chain, without caps; N, C: chain ends. No end group written: not given here.
B1: hAM(13-52) (peptide)
peptide: SFGCRFGTCTVQKLAHQIYQFTDKDKDNVAPRSKISPQGY-NH2
modifications: ends and bridges not checked
B2: N-terminal acetylated human adrenomedullin (peptide)
peptide: Ac-YRQSMNNFQGLRSFGCRFGTCTVQKLAHQIYQFTDKDKDNVAPRSKISPQGY-NH2
modifications: ends and bridges not checked
notes: also called N-Ac hAM; N-terminal acetylated AM
B3: linear human adrenomedullin hAM(1-52) (peptide)
peptide: YRQSMNNFQGLRSFGCRFGTCTVQKLAHQIYQFTDKDKDNVAPRSKISPQGY-NH2
modifications: cysteine pairing not given here
notes: also called hAM linear; linear hAM
B4: hAM(22-52) (peptide)
peptide: TVQKLAHQIYQFTDKDKDNVAPRSKISPQGY-NH2
notes: also called C-terminal AM fragment
B5: hAM2(16-47) (peptide, UniProt Q7Z4H4 116-147, looked up)
peptide: QVQNLSHRLWQLMGPAGRQDSAPVDPSSPHSY
modifications: ends and bridges not checked
notes: range 16-47; Numbering 16-47 is that of the mature AM2 peptide, not of the precursor entry
B6: hAM2 (peptide, UniProt Q7Z4H4 101-147, looked up)
peptide: TQAQLLRVGCVLGTCQVQNLSHRLWQLMGPAGRQDSAPVDPSSPHSY
B7: human adrenomedullin hAM(1-52), cyclic (peptide)
peptide: YRQSMNNFQGLRSFGCRFGTCTVQKLAHQIYQFTDKDKDNVAPRSKISPQGY-NH2
modifications: disulfide 16-21
notes: also called hAM (cyclic); cyclic hAM

Tests used:
[1] = target: adrenomedullin receptors in the lungs of dogs (dog); experiment: cell-based or functional assay
adrenomedullin receptors in the lungs of dogs (dog), sequence (chain, as listed by the source, chain 1 of 2): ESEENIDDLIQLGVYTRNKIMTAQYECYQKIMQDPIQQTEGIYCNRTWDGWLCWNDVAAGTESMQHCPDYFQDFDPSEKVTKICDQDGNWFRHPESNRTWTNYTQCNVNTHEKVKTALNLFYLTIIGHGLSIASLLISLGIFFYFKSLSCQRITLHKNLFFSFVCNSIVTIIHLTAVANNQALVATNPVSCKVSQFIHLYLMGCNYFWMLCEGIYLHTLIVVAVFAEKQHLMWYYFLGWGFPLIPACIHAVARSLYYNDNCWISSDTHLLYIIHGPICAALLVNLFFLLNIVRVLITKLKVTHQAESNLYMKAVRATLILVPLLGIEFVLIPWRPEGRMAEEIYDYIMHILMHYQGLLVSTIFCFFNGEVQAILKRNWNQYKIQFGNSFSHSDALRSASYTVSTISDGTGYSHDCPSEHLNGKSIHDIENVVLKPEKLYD
adrenomedullin receptors in the lungs of dogs (dog), sequence (chain, as listed by the source, chain 2 of 2): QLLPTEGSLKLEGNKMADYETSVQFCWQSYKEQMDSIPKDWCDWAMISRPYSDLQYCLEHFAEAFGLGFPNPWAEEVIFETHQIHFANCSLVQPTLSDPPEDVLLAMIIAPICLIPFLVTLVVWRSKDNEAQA

[2] = target: adrenomedullin receptors in the lungs of dogs (dog); experiment: competition: displacement of iodine-labelled hAM from dog lungs
[3] = target: T1, adrenomedullin receptors in the lungs of dogs (dog, UniProt A0A8I3NWR4 23-462; A0A8I3MWA8 233-365); experiment: as above
T1 construct: also called AM1 (CRLR+RAMP2) receptor
T1 sequence (chain, as listed by the source, chain 1 of 2): as the sequence (chain, as listed by the source, chain 1 of 2) above
T1 sequence (chain, as listed by the source, chain 2 of 2): as the sequence (chain, as listed by the source, chain 2 of 2) above

Molecule	IC50 [3]	other results
125I-rAM(1-50) (from UniProt P43145 94-143) (peptide)	–	mean single-pass pulmonary extraction of 125I-rAM(1-50), dogs in vivo, baseline [1]: 36.4%; mean tracer 125I-rAM(1-50) extraction during a single pulmonary transit time, dog in vivo, one typical experiment, control [1]: 30%
CGRP (Phoenix Pharmaceuticals) (peptide)	–	single-pass pulmonary extraction of 125I-rAM(1-50) after administration of CGRP (100 nmol i.v.) [1]: 40.6%; single-pass pulmonary extraction of 125I-rAM(1-50), control before CGRP [1]: 44.6%
hCGRP (from UniProt P06881 83-119) (peptide)	–	IC50 [2]: 440 nM
unlabelled rAM(1-50) (from UniProt P43145 94-143) (peptide)	–	mean extraction of 125I-rAM(1-50) in the same dog after injection of unlabelled rAM(1-50) [1]: 12%; mean single-pass pulmonary extraction of 125I-rAM(1-50) after administration of unlabelled rAM(1-50) (100 nmol i.v.) [1]: 21.9%
B1	34 nM	–
B2	0.041 nM	–
B3	7.1 nM	–
B4	810 nM	–
B5	980 nM	–
B6	480 nM	–
B7	0.055 nM	–

Source: patent US20090028790A1 (INSTITUT DE CARDIOLOGIE DE MONTREAL, published 2009)
